Substitutions are numbered along the chain they refer to. Like-named read-outs stand apart in the source and are kept apart here.

Experimental findings from patent publication US20090060919A1 (AstraZeneca / MedImmune, published 2009) are described below.

For experiment [1], the target named is T1, human IgEλ (U266 derived) (human, UniProt P01854-1 1-428).
T1 construct: Whole IgE purified from U266 cells (Ikeyama et al. 1986); labelled with europium cryptate or biotin in some assays; also called human IgE (U266-derived); human IgE lambda
T1 sequence (P01854 other isoform, or with tags, fused parts or gaps): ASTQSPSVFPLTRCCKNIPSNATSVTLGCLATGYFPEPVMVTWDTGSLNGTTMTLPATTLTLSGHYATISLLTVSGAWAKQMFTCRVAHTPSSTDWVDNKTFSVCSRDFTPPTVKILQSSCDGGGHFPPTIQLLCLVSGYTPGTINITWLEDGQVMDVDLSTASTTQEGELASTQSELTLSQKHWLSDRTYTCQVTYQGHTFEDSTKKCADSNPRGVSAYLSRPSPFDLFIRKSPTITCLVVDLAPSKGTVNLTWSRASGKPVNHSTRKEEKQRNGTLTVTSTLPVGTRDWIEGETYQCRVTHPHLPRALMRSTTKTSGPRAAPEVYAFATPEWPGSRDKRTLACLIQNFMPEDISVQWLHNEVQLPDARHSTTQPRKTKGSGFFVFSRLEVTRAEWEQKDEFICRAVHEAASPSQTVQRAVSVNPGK
Description: SPR (BIAcore 2000): IgG captured on protein G', IgE as analyte, bivalent analyte model; geomean.
Description: (§1) In brief, Protein G′ (Sigma Aldrich, P4689) was covalently coupled to the surface of a CM5 sensor chip using standard amine coupling reagents according to manufacturer's instructions (BIAcore). […] The resulting sensorgrams were evaluated using BIA evaluation 3.1 software and fitted to a bivalent analyte model, to provide relative binding data.

The target in experiment [2] is T1, human IgEλ (U266 derived). Description: cell-based or functional assay.
In experiment [3] the target is T1, human IgEλ (U266 derived). Briefly: flow cytometry: inhibition of IgE binding to CD23 on IM9 cells.
Description: Antibodies were evaluated for inhibition of the IgE/CD23 interaction. […] In brief, titrations of the test IgG were mixed with IgE prior to incubation with 1M9 cells.
Assay plates were incubated on ice for 20 minutes in the dark before centrifuging at 2000 rpm for 2 minutes and washing with 2×200 uL of Flow buffer as described above. Cells were resuspended in 100 uL Cell Fix (BD biosciences) and analysed using a FACSCalibur (BD Biosciences) to detect FL2 staining.
Experiment [4] addresses T1, human IgEλ (U266 derived). Description: cell-based or functional assay. The source holds these as a separate data set.
The target in experiment [5] is T1, human IgEλ (U266 derived). Description: SPR (BIAcore 2000): IgG captured on protein G', IgE as analyte, bivalent analyte model; geomean. The source holds these as a separate data set.
Description: as §1
Experiment [6] concerns the target T1, human IgEλ (U266 derived). Description: HTRF competition: scFv against Eu-cryptate human IgE binding to human FcεRI-Fc; geomean.
Experiment [7] addresses T2, human IgE (human, UniProt P01854-1 1-428).
T2 construct: lead-isolation RBL-ER51 assays: Calbiochem or U266-derived; also called IgE (Calbiochem or U266-derived); purified human IgE
Description: KinExA.

For experiment [8], the target named is T2, human IgE. Description: cell-based or functional assay.
The next experiment addresses T3, IgE in human serum (human, UniProt P01854-1 1-428).
T3 construct: also called IgE in serum; free IgE
Briefly: ELISA: free serum IgE captured on coated FcERI-Fc-His after mixing serum with antibody; representative experiment.

T2 sequence (P01854 other isoform, or with tags, fused parts or gaps): as above
T3 sequence (P01854 other isoform, or with tags, fused parts or gaps): as above
Description for IgE in human serum: Serum samples were prepared from blood samples from human donors. […] To reduce background binding, plates were subsequently incubated with 200 μl/well of block buffer consisting of PBS containing 0.5% BSA, incubated at room temperature for 2 hours, and washed three times with PBST as described above. […] The plates were sealed and samples incubated at room temperature for 2 hours. To remove unbound sample, plates were washed three times with PBST as described. […] The plates were then sealed again, and incubated for 1 hour at room temperature. […] The conjugate was diluted 1:25000 in PBST, 150 μl added per well, the plates sealed, and incubated for 1 hour at room temperature. The plates were then washed three times with PBST as described. TMB-substrate solution (DAKO Substrate-Chromogen, No. S1599), 150 μl/well, was then added to each well and the plates incubated for 10 minutes at room temperature.

B1: Antibody 8 IgG (antibody, V domains shown)
VH: QVQLVQSGAEVKKPGATVKLSCKVYGYIFTDYNIYWVRQAPGKGLEWMGLIDPDNGETFYAEKFQGRATMTADTSSDRAYMELTSLTFEDTATYYCATVLGRWIKGGYDYWGRGTLVTVSS
VL: QSVLTQPPSVSGAPGQRVTISCTGSSSNIGAGYDVHWYQQLPGTAPKLLIYDNFNRPSGVPDRFSGSKSGTSASLAIIGLQTEDEADYYCQSYDSPTHTSPFGTGTKLTVL
notes: Whole human IgG (section 1.4: IgG1)
The molecule B1 displayed a Kd in [1] of 2.6 nM. In experiment [2], the “RBL-ER51 calcium signalling IC50 (Geomean), Human IgE” value (shortened to “RBL-ER51 calcium signalling IC50”) came to 0.112 nM. In addition, the IC50 in [3] was determined as 16.5 nM.

B2: Antibody 11 GL IgG (antibody, V domains shown)
VH: B1 VH with Q1E, L20I, T84S, T87R, T93V, L100M, R102K
VL: B1 VL with I78T, T82A, H98L
notes: Germlined IgG
With B2, the “RBL-ER51 calcium signalling IC50” value in experiment [4] amounted to 0.084 nM. The same molecule displayed a Kd in experiment [5] of 1.5 nM.

B3: Antibody 8 GL IgG (antibody, V domains shown)
VH: B1 VH with Q1E, L20I, T84S, T87R, T93V
VL: B1 VL with I78T, T82A
notes: Germlined IgG
For B3, the “RBL-ER51 calcium signalling IC50” value in experiment [4] is 0.085 nM. In [5], this molecule showed a Kd of 2.5 nM.

B4: Antibody 1 IgG (antibody, V domains shown)
VH: B1 VH with G101H, W103R, I104L
VL: B1 VL with P96S, T97L, H98S, T99G, P101L
notes: IgG1 or IgG2 vectors named; also called parent antibody
In experiment [3], B4 registered an IC50 of 16 nM.

B5: Antibody 13 scFv (scFv, V domains shown)
VH: B1 VH with L100M, R102K
VL: B1 VL with P96N, T97I, H98L, T99Y
notes: Purified scFv, non-germlined
In experiment [6], B5 returned a 50% inhibitory concentration (IC50) of 2 nM.

B6: Antibody 11 IgG (antibody, V domains shown)
VH: B1 VH with L100M, R102K
VL: B1 VL with H98L
notes: as for B1
With B6, the Kd with human IgE [7] was 0.0063 nM; in [1], 1.6 nM. In addition, the “induction of IgE positive human B cells (intracellular IgE, flow cytometry), IC50” value in the experiment with human IgE [8] was 1.6 nM. In the experiment with human IgE [8], the “β-hexosaminidase release of LAD2 mast cells, IC50” value stood at 0.04 nM. In experiment [2], the “RBL-ER51 calcium signalling IC50” value was 0.069 nM. The half-inhibitory concentration (IC50) in experiment [3] came out at 23 nM; with IgE in human serum it was 0.202 nM.

B7: Antibody 12 scFv (scFv, V domains shown)
VH: B1 VH with L100M, R102K
VL: B1 VL with P96S, T97I, H98D, T99H
notes: Purified scFv, non-germlined
B7: the concentration for half-maximal inhibition (IC50) in experiment [6] is 3 nM.
